Measured values taken from patent US20220213151A1.
Where two headings read alike, the source gives them in different places.

What was measured:
[1] = target: rhu EGFR (Fc) (human (rhu)) (UniProt P00533); test: pH 6
[2] = target: rhu EGFR (Fc) (human (rhu)) (UniProt P00533)

Substance: A-dmDT390-EGF (other; other documents disagree on this pair)
- Kd [1]: 102 nM
- Kd [2]: 5.81 nM
